The results in this text go back to publication PMC11358422.

Holding throughout (experiment): ELISA
(In an ELISA, binding on a coated surface is turned into a signal by an enzyme label.)

Series [1] concerns parvalbumin (trout ('fish traut')). Conditions: fish trout suspension; 5' biotin; ELISA: suspension coated in 100 mM NaHCO3 pH 9.6, 5% CSA block, aptamer in Base Pair Aptamer Folding Buffer, washes 0.02% Tween-20 in PBS; microscopy: aptamer ….
Another series has as its target hemoglobin (UniProt P69905+P68871). The conditions noted are these: 5' biotin, ELISA: suspension coated in 100 mM NaHCO3 pH 9.6, 5% CSA block, aptamer in Base Pair Aptamer Folding Buffer, washes 0.02% Tween-20 in PBS, microscopy: aptamer ….
For the next series, the system named is gluten (gliadin) (wheat). Conditions: wheat flour suspension; 5' biotin; ELISA: suspension coated in 100 mM NaHCO3 pH 9.6, 5% CSA block, aptamer in Base Pair Aptamer Folding Buffer, washes 0.02% Tween-20 in PBS; microscopy: aptamer ….
The target of the next series is T1, beta-lactoglobulin (UniProt P02754).
T1 sequence: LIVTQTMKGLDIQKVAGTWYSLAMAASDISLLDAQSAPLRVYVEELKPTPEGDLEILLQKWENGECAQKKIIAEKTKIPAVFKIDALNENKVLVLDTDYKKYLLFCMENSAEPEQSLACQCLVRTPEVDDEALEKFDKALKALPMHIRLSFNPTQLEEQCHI
The conditions noted are these: raw milk; 5' biotin; ELISA: suspension coated in 100 mM NaHCO3 pH 9.6, 5% CSA block, aptamer in Base Pair Aptamer Folding Buffer, washes 0.02% Tween-20 in PBS; microscopy: aptamer ….

Series [2] addresses gelatin (collagen) (bovine skin) (UniProt P02453+P02465). The conditions noted are these: gelatin suspension; 5' biotin; ELISA: suspension coated in 100 mM NaHCO3 pH 9.6, 5% CSA block, aptamer in Base Pair Aptamer Folding Buffer, washes 0.02% Tween-20 in PBS; microscopy: aptamer ….
The target in series [3] is T2, beta-casein / beta-casomorphin-7 (UniProt P02666).
T2 sequence: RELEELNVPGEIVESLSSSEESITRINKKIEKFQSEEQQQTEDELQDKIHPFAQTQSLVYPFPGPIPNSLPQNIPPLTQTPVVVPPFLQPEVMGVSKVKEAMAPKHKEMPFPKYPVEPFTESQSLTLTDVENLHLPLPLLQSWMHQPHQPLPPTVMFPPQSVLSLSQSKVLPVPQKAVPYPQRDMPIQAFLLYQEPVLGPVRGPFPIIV
Conditions: raw milk; 5' biotin; ELISA: suspension coated in 100 mM NaHCO3 pH 9.6, 5% CSA block, aptamer in Base Pair Aptamer Folding Buffer, washes 0.02% Tween-20 in PBS; microscopy: aptamer ….

hemoglobin, sequence (P69905 2-142, chain 1 of 2): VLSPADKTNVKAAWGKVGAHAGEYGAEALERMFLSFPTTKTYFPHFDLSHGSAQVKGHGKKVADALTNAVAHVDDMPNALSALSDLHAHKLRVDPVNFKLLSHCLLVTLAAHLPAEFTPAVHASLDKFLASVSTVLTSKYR
hemoglobin, sequence (P68871 2-147, chain 2 of 2): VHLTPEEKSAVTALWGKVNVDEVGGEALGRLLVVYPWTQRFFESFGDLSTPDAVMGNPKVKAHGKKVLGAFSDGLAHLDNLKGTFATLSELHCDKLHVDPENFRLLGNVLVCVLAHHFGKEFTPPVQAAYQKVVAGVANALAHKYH
gelatin (collagen) (bovine skin), sequence (P02453 whole entry, chain 1 of 2): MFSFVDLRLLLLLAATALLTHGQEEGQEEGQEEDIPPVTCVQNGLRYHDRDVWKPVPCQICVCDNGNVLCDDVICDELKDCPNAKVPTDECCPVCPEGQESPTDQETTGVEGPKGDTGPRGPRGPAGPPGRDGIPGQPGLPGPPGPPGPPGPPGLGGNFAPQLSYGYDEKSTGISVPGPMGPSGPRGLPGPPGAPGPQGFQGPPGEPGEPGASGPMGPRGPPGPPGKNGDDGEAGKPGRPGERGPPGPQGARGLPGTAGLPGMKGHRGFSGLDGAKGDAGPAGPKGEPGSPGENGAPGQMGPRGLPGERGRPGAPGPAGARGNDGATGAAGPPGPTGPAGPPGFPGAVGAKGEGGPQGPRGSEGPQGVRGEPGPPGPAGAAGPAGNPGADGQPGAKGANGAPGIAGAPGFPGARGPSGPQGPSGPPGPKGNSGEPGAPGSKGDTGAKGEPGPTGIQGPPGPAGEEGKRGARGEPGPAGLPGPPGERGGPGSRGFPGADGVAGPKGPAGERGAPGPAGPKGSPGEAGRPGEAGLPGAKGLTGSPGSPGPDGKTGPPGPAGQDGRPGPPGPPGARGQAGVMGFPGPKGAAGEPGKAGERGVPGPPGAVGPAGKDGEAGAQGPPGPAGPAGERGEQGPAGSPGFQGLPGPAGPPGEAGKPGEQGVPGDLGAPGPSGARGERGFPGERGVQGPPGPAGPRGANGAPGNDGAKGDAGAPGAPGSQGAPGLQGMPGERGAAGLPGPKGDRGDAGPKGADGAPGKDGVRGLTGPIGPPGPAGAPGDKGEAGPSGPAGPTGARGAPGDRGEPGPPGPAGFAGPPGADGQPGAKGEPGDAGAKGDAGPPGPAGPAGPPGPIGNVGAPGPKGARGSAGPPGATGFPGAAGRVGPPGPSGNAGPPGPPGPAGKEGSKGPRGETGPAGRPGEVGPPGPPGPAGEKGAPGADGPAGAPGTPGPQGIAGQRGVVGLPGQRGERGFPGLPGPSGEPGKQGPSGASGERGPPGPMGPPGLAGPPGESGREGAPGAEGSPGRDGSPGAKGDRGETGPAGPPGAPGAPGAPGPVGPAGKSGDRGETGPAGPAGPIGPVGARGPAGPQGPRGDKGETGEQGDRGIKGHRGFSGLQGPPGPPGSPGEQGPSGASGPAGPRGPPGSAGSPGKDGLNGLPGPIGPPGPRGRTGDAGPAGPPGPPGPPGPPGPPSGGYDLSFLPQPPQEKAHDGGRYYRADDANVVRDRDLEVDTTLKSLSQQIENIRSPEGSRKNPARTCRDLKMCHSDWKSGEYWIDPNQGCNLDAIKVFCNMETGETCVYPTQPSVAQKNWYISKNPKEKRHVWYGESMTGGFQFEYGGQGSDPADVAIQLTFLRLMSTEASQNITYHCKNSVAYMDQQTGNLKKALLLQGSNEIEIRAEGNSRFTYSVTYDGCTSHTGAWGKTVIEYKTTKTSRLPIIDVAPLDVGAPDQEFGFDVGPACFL
gelatin (collagen) (bovine skin), sequence (P02465 whole entry, chain 2 of 2): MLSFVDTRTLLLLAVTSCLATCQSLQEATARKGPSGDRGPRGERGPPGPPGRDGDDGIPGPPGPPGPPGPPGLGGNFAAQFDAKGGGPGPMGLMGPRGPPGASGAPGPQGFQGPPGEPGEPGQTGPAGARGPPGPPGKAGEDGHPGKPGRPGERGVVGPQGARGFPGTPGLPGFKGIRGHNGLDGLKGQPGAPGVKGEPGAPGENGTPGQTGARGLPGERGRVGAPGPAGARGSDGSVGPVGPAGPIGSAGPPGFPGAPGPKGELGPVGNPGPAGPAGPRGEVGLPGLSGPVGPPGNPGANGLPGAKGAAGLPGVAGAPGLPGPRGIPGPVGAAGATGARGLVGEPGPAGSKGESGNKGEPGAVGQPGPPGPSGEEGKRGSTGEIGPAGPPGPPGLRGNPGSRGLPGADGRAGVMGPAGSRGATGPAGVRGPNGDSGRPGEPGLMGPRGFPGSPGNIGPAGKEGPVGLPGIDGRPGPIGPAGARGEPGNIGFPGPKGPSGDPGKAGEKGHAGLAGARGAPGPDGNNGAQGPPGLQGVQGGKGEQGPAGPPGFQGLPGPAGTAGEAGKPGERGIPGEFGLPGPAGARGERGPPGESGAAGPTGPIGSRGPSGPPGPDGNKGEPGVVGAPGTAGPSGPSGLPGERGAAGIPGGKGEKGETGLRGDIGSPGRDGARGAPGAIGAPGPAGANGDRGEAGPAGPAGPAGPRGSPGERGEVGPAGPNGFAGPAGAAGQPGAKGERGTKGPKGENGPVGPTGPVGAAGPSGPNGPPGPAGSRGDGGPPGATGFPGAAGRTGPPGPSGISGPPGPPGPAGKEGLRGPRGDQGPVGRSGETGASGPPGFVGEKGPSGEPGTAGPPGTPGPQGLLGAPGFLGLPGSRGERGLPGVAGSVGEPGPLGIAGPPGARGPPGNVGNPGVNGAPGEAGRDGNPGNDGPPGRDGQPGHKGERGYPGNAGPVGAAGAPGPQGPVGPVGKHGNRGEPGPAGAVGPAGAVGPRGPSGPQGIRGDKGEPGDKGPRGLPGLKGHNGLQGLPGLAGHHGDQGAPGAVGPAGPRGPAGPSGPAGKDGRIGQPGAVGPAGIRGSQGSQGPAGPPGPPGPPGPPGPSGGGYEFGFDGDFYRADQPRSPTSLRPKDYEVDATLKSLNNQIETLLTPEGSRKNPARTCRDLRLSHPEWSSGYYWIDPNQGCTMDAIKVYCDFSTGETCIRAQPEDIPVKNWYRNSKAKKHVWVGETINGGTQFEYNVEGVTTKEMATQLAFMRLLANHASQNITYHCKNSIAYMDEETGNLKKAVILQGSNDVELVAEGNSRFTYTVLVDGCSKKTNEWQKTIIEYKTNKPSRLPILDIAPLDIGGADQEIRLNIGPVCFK

For the sequence “TTTTTTTTGCCAAAGGAGGCGAGAGATAAAAGATTGCGAATCCATTCG [Par1]”, in series [1], the binding signal came out at 0.412 OD405.

On to “GGCAGGAAGACAAACACCAGGTGAGGGAGACGACGCGAGTGTTAGATGGTAGCTGTTGGTCTGTGGTGCTGT [Hb]”, for which, in the series with hemoglobin, the binding signal stood at 0.388 OD405.

As for “CTAGGCGAAATATAGCTACAACTGTCTGAAGGCACCCAAT [Gli 1]”, the binding signal with gluten (gliadin) (wheat) was found to be 0.577 OD405.

In turn, “CGACGATCGGACCGCAGTACCCACCCACCAGCCCCAACATCATGCCCATCCGTGTGTG [BLG14]” came in with a binding signal with beta-lactoglobulin of 0.394 OD405.

In series [2], “TTTTTGGTTGACGGCAGTCGGCGGTATGCGCATATCGTGTTGGTA [D1]” showed a binding signal of 0.4 OD405.

“ATCCGTCACACCTGCTCTATACACATTGTGTTTACTCCCAGTTTTTTAGACTTATGGTGTTGGCTCCCGTAT [seqU5]” came in with a binding signal in series [3] of 0.51 OD405.

In turn, “CCAGTCTCCCGTTTACCGCGCCTACACATGTCTGAATGCC [Gli 4]” gave a binding signal with gluten (gliadin) (wheat) of 0.519 OD405.

In turn, “TTAGCGAGCTGCACACACAATGGACTCGTCATACCGTGCTGTTT [HA]” gave a binding signal with hemoglobin of 0.471 OD405.

In turn, “ACGCACACCAGAGACAAGTAGCCCCCCAAACGCG [G15 T1]” showed a binding signal with hemoglobin (signal at MilliQ control level) of 0.015 OD405.

For “ATCCGTCACACCTGCTCTAGACGAATATTGTATCCTCATTAGATCAAAAACGGGTGGTGTTGGCTCCCGTAT [CTx 2R (CTx 2R-2h)]”, the binding signal in series [2] stood at 0.615 OD405.
